Patent US20150232562A1 (Ablynx, published 2015)

B1: 11A43/1-123 (VHH)
VHH: EVQLVESGGGLVQAGGSLRLSCAASGSIFRVNHMGWYRQAPGKQREFVAAITSDHITWYADAVKGRFTISRDNAKNTVTLQMNSLRPEDTAVYYCAADPLLFYGVGSADVDYWGQGTQVTVSS
notes: C-term myc-His6 tag
B2: 11B21/1-124 (VHH)
VHH: EVQLVESGGGLVQAGGSLRLSCAASGRTFSMYLMGWFRQAPGKEREFVSTINRRGGNTYYADSVKGRFTISRDNARNTVYLQMNSLKPEDTAVYYCAAGGHLLGYDVQWEPDYWGQGTQVTVSS
notes: C-term myc-His6 tag
B3: 21A121/1-123 (VHH)
VHH: EVQLVESGGGLVQAGGSLRLSCTASGRAFNMGWFRQAPGKEREFVAGVNWGGGSTKVADSVKERFTISRDYDNSPVYLQMNTLKPEDTAVYYCAATSRWYSAVYDLPTRYDYWGQGTQVTVSS
notes: C-term myc-His6 tag
B4: 11B81/1-126 (VHH)
VHH: EVQLVESGGGLVQAGGSLRLSCAASGRPVNNYIMGWFRQALGQGREFVAAINRNGATAAYADSVKGRFTISRDNAEDLLYLQMNLLKPEDTAVYYCAANSDSGFDSYSVWAAYEYWGQGTQVTVSS
notes: C-term myc-His6 tag
B5: 13F101/1-124 (VHH)
VHH: EVQLVESGGGLVQAGGSLRLSCQLSGGTVSDLHMGWFRQAPGKEREFVGFTRWPSITYIAEHVKGRFTISRDNAKNTVYLQMNSLEREDTAVYYCAADRSYSIDYRHPDSYSYWGQGTQVTVSS
notes: C-term myc-His6 tag
B6: 11A71/1-125 (VHH)
VHH: EVQLVESGGGLVQPGGSLRLSCAASRSIRSVSVMGWYRLAPGNQRELVATITADGITNYADSVKGRFTVSRDNGRNTVYLQMNSLKPEDTAVYYCNVDRLLYYSSGYYQTSVDVWGQGTQVTVSS
notes: C-term myc-His6 tag
B7: 22B71/1-114 (VHH)
VHH: EVQLVESGGAFVQPGGSLRLSCAASGSDVWFNVMGWYRQGPGQQLELVASITYGGNINYGDPVKGRFSISRDNALKTVYLQMNSLKPEDTAVYYCYADLPSRLWGQGTQVTVSS
notes: C-term myc-His6 tag
B8: 11B121/1-127 (VHH)
VHH: EVQLVESGGGLVQPGGSLRLSCAASGSSASINTMGWYRQAPGEQRELVAEITEGGIINYTDSVKGRFTISRDNAKNTVYLEMNNLKPEDTAVYYCNADRALYRNYSDGRYYTGYDYWGQGTQVTVSS
notes: C-term myc-His6 tag
B9: 12D31/1-115 (VHH)
VHH: EVQLVESGGGLVQPGGSLRLSCAASRNIFDFNDMGWYRQGPGKEREFVALINVGGVAKYEDSVKGRFTISRDNAENTVYLQMNNLKPEDMAVYYCNARILSRNYWGQGNQVTVSS
notes: C-term myc-His6 tag
B10: 12D11/1-123 (VHH)
VHH: EVQLVESGGGLVQTGGSLRLSCAASGRTFSGSRMGWFRQAPGKEREFVAAIRWSGGITWYAESVKSRFTISRDNTKNTIDLQINSLKPEDTAVYYCAADVIYKNIGSGSFDYWGQGTQVTVSS
notes: C-term myc-His6 tag
B11: 12D14/1-123 (VHH)
VHH: EVQLVESGGGLVQAGGSLRLSCAASGRTFSGSRMGWLRQAPGKEREFVAAVRWSGGITWYAESVKGRFTISRDNTKNTIDLQINSLKPEDTAVYYCAADVIYKNIGSGSFDYWGQGTQVTVSS
notes: C-term myc-His6 tag
B12: 13E101/1-128 (VHH)
VHH: EVQLVESGGGLVQAGGSLRLSCAVSGRTFNNDHMGWFRQAPGTERELVAATGRRGGPTYYADSVKGRFTISRDNAESTVYLQMNSLKAEDTAVYYCAANRYYCSTYGCLSTPRQYDYWGQGTQVTVSS
notes: C-term myc-His6 tag
B13: 13G51/1-127 (VHH)
VHH: EVQLVESGGGLVQAGGSLSLSCAASGGTFNGRAVGWFRQAPGEEREFVTGISWSGGSTDYADSVKGRFTISRDNSKNTVSLQMNSLKPEDTAVYYCAASRRFYSGLVYYSVDAYENWGQGTQVTVSS
notes: C-term myc-His6 tag
B14: 13E61/1-123 (VHH)
VHH: EVQLVESGGGLVQAGGSLRLSCTASGQTFNMGWFRQAPGKEREFVAAISWSQYNTKYADSVKGRFTISRDNAINSLYLQMDTLKPEDTAVYYCAATNRWFSAVYDLPSRYTYWGQGTQVTVSS
notes: C-term myc-His6 tag
B15: 11B51/1-127 (VHH)
VHH: EVQLVESGGGLVQAGGSLRLSCAASGGTFSGRGMGWFRQAPGKEREFVAAVSWSGGNTYYADSVKGRFTISRDNAKSTVYLQMDSLKPEDTAVYYCAASRRFYSGLYYYTDDAYEYWGQGTQVTVSS
notes: C-term myc-His6 tag
B16: 12D92/1-123 (VHH)
VHH: EVQLVESGGGLVQAGGSLRLSCAASGRTYNMAWFRQAPGKEREFVAAMNWSGGSTKYAESVKGRFTISRANDNNPLYLQMNTLKPEDTAVYYCAATNRWYTGVYDLPSRYEYWGQGTQVTVSS
notes: C-term myc-His6 tag
B17: 22C51/1-121 (VHH)
VHH: EVQLVESGGGLVQAGASLRLSCAASGRTFSRYDIGWFRQAPGKGREFVAAINWSGGTTSFGDSVKGRFTISRDNAKNTVYLQMNSLKPEDTAVYYCAALRSWPRGVDSGSWGQGTQVTVSS
notes: C-term myc-His6 tag
B18: 14H121/1-113 (VHH)
VHH: EVQLVESGGGLVQPGGSLRLSCAASGITFRFKAMGWFRQGPGKRRELVARIAGGSTNYADSVKGRFTISRDDAKNTVFLQMNSLKPEDTAVYYCNVDGPFGNWGQGTQVTVSS
notes: C-term myc-His6 tag
B19: 12C81/1-117 (VHH)
VHH: EVQLVESGGGLVQPGGSLRLSCAGSGNIVRDNTMAWYRQAPGNQRDLVATINVGGGTYYAGPVKGRFTISRDNAKNSVYLQMNSLKPEDTSVYYCNVISGLVQRDYWGQGTQVTVSS
notes: C-term myc-His6 tag
B20: 11C11/1-121 (VHH)
VHH: EVQLVESGGGLVQAGGSLRLSCAASGRTFSAYAMGWFRQAPGKERESVATIRWTGGSSSTSYADSVKGRFTISKNTAENTVYLQMNSLKPEDTAVYYCAVLLTVWDTYKYWGQGTQVTVSS
notes: C-term myc-His6 tag
B21: 11B91/1-125 (VHH)
VHH: EVQLVESGGALVQPGGSLRLSCAASGSIRSINTMGWYRQAPGNQREFVAAVTEGGTTSYAASVKGRFTISRDKAKNTVLLQMDSLKPEDTAVYYCNADRFLYYSAGRYDTGSDIWGQGTQVTVSS
notes: C-term myc-His6 tag
B22: 22B85/1-120 (VHH)
VHH: EVQLVESGGGLVRPGGSLRLSCATSGSDIGINAMGWYRQAPGNQRELVATITGSTGTTYADSVKGRFAISRDGAKNTVYLQMDSLKPEDTAVYYCNLRVYTGTYGGRNYWGQGTQVTVSS
notes: C-term myc-His6 tag
B23: 12D61/1-116 (VHH)
VHH: EVQLVESGGGLVQPGGSLRLSCAASRSIFSPNVVGWYRQAPGKQRELVAAVTSGGITNYADSVKGRFTISRDNAKNTLYLQMNSLKAEDTAVYYCNARERGIYDSWGQGTQVTVSS
notes: C-term myc-His6 tag
B24: 12C121/1-126 (VHH)
VHH: EVQLVESGGDLVQPGESLRLSCAVSGVTVDYSGIGWFRQAPEKEREAVSCIESGDGTTTYVDSVKGRFTISRDNAKNAVYLQMNSLKPEDTGVYYCATAVFVDSGDFSVCRGVGYWGKGTQVTVSS
notes: C-term myc-His6 tag
B25: 13G31/1-125 (VHH)
VHH: EVQLVESGGGLVQAGGSLRLSCAASGGTFSRYKMGWFRQAPGKEREFVAASRWSGGIKYHADSVKGRFTISRDDAKNSIYLQMNTLKPEDTAVYYCAADDYLGGDNWYLGPYDSWGQGTQVTVSS
notes: C-term myc-His6 tag
B26: 12C111/1-123 (VHH)
VHH: EVQLVESGGGLVQAGGSLRLSCAVSGLTFSSYAMGWFRQAPGKVREFVATISRSGGRTSYADSVKGRFIVSRDNAKNTADLQMNDLKPEDTAVYYCGASKWYGGFGDTDIEYWGQGTQVTVSS
notes: C-term myc-His6 tag
B27: 22B55/1-123 (VHH)
VHH: EVQLVESGGGLVQAGGSLRLSCAVSGLTFSTYAMGWFRQAPGKVREFVATISRSGGRTSYADSVKGRFIVSRDNAKNTADLQMNELKPEDTAVYYCGASKWYGGFGDTDIEYWGQGTQVTVSS
notes: C-term myc-His6 tag
B28: 11B12/1-118 (VHH)
VHH: EVQLVESGGGLVQAGGSLRLSCAASGRALINYAMGWFRQAPGKEREFVSAINWSGSHTDYGDSVKGRFAISRDNAKNTVYLQMHSLKPEDTAVYHCATGYSLPAFDSWGPGTQVTVSS
notes: C-term myc-His6 tag
B29: 11B71/1-126 (VHH)
VHH: EVQLVESGGGLVQAGGSLRLSCAASGRTFERYAMGWFRQAPGKEREFVATISWSGGRDTVYADSVKGRFTISRDNAKNTVYLQMNSLKPEDTAVYYCAAHKRTYELGAHSTDFGSWGQGTQVTVSS
notes: C-term myc-His6 tag
B30: 13G61/1-118 (VHH)
VHH: EVQLVESGGGVVQAGGSLRLSCAPSGRTFSSYVMGWVRQAPGKAREFVAGITRNSGRTRYADSVKGRFTISRDNADNTVTLQMNSLKPEDTAVYYCAGGIDLYTFHYFGQGTQVTVSS
notes: C-term myc-His6 tag
B31: 14H41/1-118 (VHH)
VHH: EVQLVESGGGLVQAGGSLRLSCAPSGRTFSSYVMGWVRQAPGKAREFVAGITRNSIRTRYADSVKGRFTISRDNADNTVTLQMNSLKPEDTAVYYCAGGIDLYTFDYFGQGTQVTVSS
notes: C-term myc-His6 tag
B32: 11A81/1-125 (VHH)
VHH: EVQLVESGGALVQPGGSLRLSCAASDSIRSINIMGWYRQAPGKQREFVAAVTEDGSINYAESVKGRFTISRDKAKNALYLQMNSLKPEDMAVYYCNADRVLYYSDSRYYTGSNYWGQGTQVTVSS
notes: C-term myc-His6 tag
B33: 22C65/1-124 (VHH)
VHH: EVQLVESGGGLVQAGGSLRLSCAVSGFLFDSYAMGWFRQAPGKEREFVAAIRWSGSATDYSDSVKGRFTISRDNAKNTVYLQMNSLIPEDTAVYYCAARKTYRSLTYYGEYDSWGQGTQVTVSS
notes: C-term myc-His6 tag

Biological target: T1, recombinant human ErbB2/Fc chimera (human, UniProt P04626 23-652)
T1 construct: bought from R&D Systems; also called rhErbB2-Fc; rhErb2-Fc; Fc part of the bought chimera not given; not described
Assay: ELISA, coated ErbB2/Fc

Binding result, binds:
B1, B2, B3, B4, B5, B6, B7, B8, B9, B10, B11, B12, B13, B14, B15, B16, B17, B18, B19, B20, B21, B22, B23, B24, B25, B26, B27, B28, B29, B30, B31, B32, B33
